Assays:
[1] = target: purified His-tagged Stat3 (murine Stat3, recombinant, expressed in BL21(DE3)) (murine) (UniProt P42227); assay: SPR (SensiQ), peptide as analyte over His-Stat3 immobilised on HisCap/Ni-NTA sensor chip
[2] = target: purified His-tagged Stat3 (murine Stat3, recombinant, expressed in BL21(DE3)) (murine) (UniProt P42227); assay: fluorescence polarization competition; competitor/probe 5-carboxyfluorescein-GpYLPQTV-NH2 (10 nM), His-Stat3 150 nM

Sequence of purified His-tagged Stat3 (murine Stat3, recombinant, expressed in BL21(DE3)) (murine) (P42227 whole entry): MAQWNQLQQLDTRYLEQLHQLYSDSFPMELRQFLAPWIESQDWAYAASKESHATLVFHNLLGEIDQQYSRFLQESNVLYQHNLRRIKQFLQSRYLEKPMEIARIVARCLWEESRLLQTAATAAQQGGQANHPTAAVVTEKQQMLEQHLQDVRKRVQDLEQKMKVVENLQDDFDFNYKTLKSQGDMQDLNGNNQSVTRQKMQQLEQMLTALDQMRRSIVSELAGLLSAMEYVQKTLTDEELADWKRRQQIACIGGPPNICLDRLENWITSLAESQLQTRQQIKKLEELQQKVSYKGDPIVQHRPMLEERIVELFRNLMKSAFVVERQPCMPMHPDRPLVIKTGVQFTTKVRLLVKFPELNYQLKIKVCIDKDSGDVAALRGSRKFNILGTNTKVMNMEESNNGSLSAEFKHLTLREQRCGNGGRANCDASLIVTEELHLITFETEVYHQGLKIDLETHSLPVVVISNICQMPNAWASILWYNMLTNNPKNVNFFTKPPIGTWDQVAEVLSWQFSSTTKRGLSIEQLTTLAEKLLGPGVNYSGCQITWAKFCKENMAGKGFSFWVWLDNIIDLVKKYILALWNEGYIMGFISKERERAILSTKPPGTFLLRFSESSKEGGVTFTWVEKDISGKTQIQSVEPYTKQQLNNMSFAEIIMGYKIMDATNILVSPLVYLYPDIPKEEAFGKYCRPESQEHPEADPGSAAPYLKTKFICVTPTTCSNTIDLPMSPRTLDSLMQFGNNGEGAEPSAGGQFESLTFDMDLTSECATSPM

Kd [1]: 0.024 µM
IC50 [2]: 0.3 µM
Substance: GpYLPQTV-NH2, high affinity Stat3-binding phosphoTyr peptide derived from the interleukin-6 receptor subunit gp-130

— US20120130079A1
